# B1: Multidrug resistance-associated protein 1 (Mus musculus) (protein)
# chain: MALRSFCSADGSDPLWDWNVTWHTSNPDFTKCFQNTVLTWVPCFYLWSCFPLYFFYLSRHDRGYIQMTHLNKTKTALGFFLWIICWADLFYSFWERSQGVLRAPVLLVSPTLLGITMLLATFLIQLERRKGVQSSGIMLTFWLVALLCALAILRSKIISALKKDAHVDVFRDSTFYLYFTLVLVQLVLSCFSDCSPLFSETVHDRNPCPESSASFLSRITFWWITGMMVHGYRQPLESSDLWSLNKEDTSEEVVPVLVNNWKKECDKSRKQPVRIVYAPPKDPSKPKGSSQLDVNEEVEALIVKSPHKDREPSLFKVLYKTFGPYFLMSFLYKALHDLMMFAGPKILELIINFVNDREAPDWQGYFYTALLFVSACLQTLALHQYFHICFVSGMRIKTAVVGAVYRKALLITNAARKSSTVGEIVNLMSVDAQRFMDLATYINMIWSAPLQVILALYFLWLSLGPSVLAGVAVMILMVPLNAVMAMKTKTYQVAHMKSKDNRIKLMNEILNGIKVLKLYAWELAFQDKVMSIRQEELKVLKKSAYLAAVGTFTWVCTPFLVALSTFAVFVTVDERNILDAKKAFVSLALFNILRFPLNILPMVISSIVQASVSLKRLRIFLSHEELEPDSIERRSIKSGEGNSITVKNATFTWARGEPPTLNGITFSIPEGALVAVVGQVGCGKSSLLSALLAEMDKVEGHVTLKGSVAYVPQQAWIQNDSLRENILFGHPLQENYYKAVMEACALLPDLEILPSGDRTEIGEKGVNLSGGQKQRVSLARAVYSNSDIYLFDDPLSAVDAHVGKHIFEKVVGPMGLLKNKTRILVTHGISYLPQVDVIIVMSGGKISEMGSYQELLDRDGAFAEFLRTYANAEQDLASEDDSVSGSGKESKPVENGMLVTDTVGKHLQRHLSNSSSHSGDTSQQHSSIAELQKAGAKEETWKLMEADKAQTGQVQLSVYWNYMKAIGLFITFLSIFLFLCNHVSALASNYWLSLWTDDPPVVNGTQANRNFRLSVYGALGILQGAAIFGYSMAVSIGGIFASRRLHLDLLYNVLRSPMSFFERTPSGNLVNRFSKELDTVDSMIPQVIKMFMGSLFSVIGAVIIILLATPIAAVIIPPLGLVYFFVQRFYVASSRQLKRLESVSRSPVYSHFNETLLGVSVIRAFEEQERFIHQSDLKVDENQKAYYPSIVANRWLAVRLECVGNCIVLFAALFAVISRHSLSAGLVGLSVSYSLQITAYLNWLVRMSSEMETNIVAVERLKEYSETEKEAPWQIQETAPPSTWPHSGRVEFRDYCLRYREDLDLVLKHINVTIEGGEKVGIVGRTGAGKSSLTLGLFRINESAEGEIIIDGVNIAKIGLHNLRFKITIIPQDPVLFSGSLRMNLDPFSQYSDEEVWMALELAHLKGFVSALPDKLNHECAEGGENLSVGQRQLVCLARALLRKTKILVLDEATAAVDLETDNLIQSTIRTQFEDCTVLTIAHRLNTIMDYTRVIVLDKGEVRECGAPSELLQQRGIFYSMAKDAGLV
# Tests used:
# [1] = substrate: CCCCC/C=C\C\C=C/C=C/C=C/[C@@H](SC[C@@H](NC(=O)CC[C@H](N)C(=O)O)C(=O)NCC(=O)O)[C@@H](O)CCCC(=O)O; assay: cells, lysate or membranes named
# [2] = substrate: C[C@]12CC[C@@H]3c4ccc(O)cc4CC[C@H]3[C@@H]1CC[C@@H]2O[C@@H]1O[C@H](C(=O)O)[C@@H](O)[C@H](O)[C@H]1O; assay: cells, lysate or membranes named
protein,measurement,setting,value
B1,Km,[1],0.06 µM
same,Km,[2],2.9 µM

# — ChEMBL document CHEMBL2073844, “Pharmacological characterization of the murine and human orthologs of multidrug-resistance protein in transfected human embryonic kidney cells” (Mol Pharmacol, 1997)
